Laboratory results taken from patent US20230063116A1 (Regeneron, published 2023).
Read-outs that look alike come from different tables or passages of the source.

T1: VEGF110 (hVEGF110, aa 207-318) (human, UniProt P15692 207-318)
T1 sequence (looked up): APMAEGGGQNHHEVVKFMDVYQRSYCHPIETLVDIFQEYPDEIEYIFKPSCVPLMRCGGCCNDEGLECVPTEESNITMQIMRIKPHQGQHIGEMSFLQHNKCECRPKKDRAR

B1: REGN7483^F (homodimer mini-trap, FabRICATOR cleaved from aflibercept) (receptor)
chain: SDTGRPFVEMYSEIPEIIHMTEGRELVIPCRVTSPNITVTLKKFPLDTLIPDGKRIIWDSRKGFIISNATYKEIGLLTCEATVNGHLYKTNYLTHRQTNTIIDVVLSPSHGIELSVGEKLVLNCTARTELNVGIDFNWEYPSSKHQHKKLVNRDLKTQSGSEMKKFLSTLTIDGVTRSDQGLYTCAASSGLMTKKNSTFVRVHEKDKTHTCPPCPAPELLG
modifications: here or on the partner: N-linked glycans at N36, N68, N123, N196 (Table C)
B2: REGN7483^R (homodimer mini-trap, recombinant) (receptor)
chain: B1 chain
modifications: here or on the partner: N-linked glycans at N36, N68, N123, N196 (Table C)
B3: human VEGF165 (REGN110) (ligand)
chain: APMAEGGGQNHHEVVKFMDVYQRSYCHPIETLVDIFQEYPDEIEYIFKPSCVPLMRCGGCCNDEGLECVPTEESNITMQIMRIKPHQGQHIGEMSFLQHNKCECRPKKDRARQENPCGPCSERRKHLFVQDPQTCKCSCKNTDSRCKARQLELNERTCRCDKPRR
notes: It is treated here as the same molecule; also called hVEGF165; hVEGF165(M1-R191)
B4: REGN112 (receptor)
chain: SDTGRPFVEMYSEIPEIIHMTEGRELVIPCRVTSPNITVTLKKFPLDTLIPDGKRIIWDSRKGFIISNATYKEIGLLTCEATVNGHLYKTNYLTHRQTNTIIDVVLSPSHGIELSVGEKLVLNCTARTELNVGIDFNWEYPSSKHQHKKLVNRDLKTQSGSEMKKFLSTLTIDGVTRSDQGLYTCAASSGLMTKKNSTFVRVHEKDKTHTCPPC
B5: VEGF121 (hVEGF121, aa 207-327) (ligand)
chain: APMAEGGGQNHHEVVKFMDVYQRSYCHPIETLVDIFQEYPDEIEYIFKPSCVPLMRCGGCCNDEGLECVPTEESNITMQIMRIKPHQGQHIGEMSFLQHNKCECRPKKDRARQEKCDKPRR
B6: REGN3, full-length VEGF Trap (aflibercept) (Fc fusion, human, UniProt P17948 129-231, looked up, not shown: a dimerising Fc or GST)
chain: SDTGRPFVEMYSEIPEIIHMTEGRELVIPCRVTSPNITVTLKKFPLDTLIPDGKRIIWDSRKGFIISNATYKEIGLLTCEATVNGHLYKTNYLTHRQTNTIIDVVLSPSHGIELSVGEKLVLNCTARTELNVGIDFNWEYPSSKHQHKKLVNRDLKTQSGSEMKKFLSTLTIDGVTRSDQGLYTCAASSGLMTKKNSTFVRVHEK
notes: range 129-231;range 226-327; also called Eylea; VEFGR1d2-VEGFR2d3 VEGF Trap

Columns and labels:
[1] = target: chimeric VEGFR1 receptors on HEK293/D9/Flt-IL18Rα/Flt-IL18Rβ clone V3H9 cells (UniProt P17948); assay: cell-based or functional assay
[2] = target: chimeric VEGFR1 receptors on HEK293/D9/Flt-IL18Rα/Flt-IL18Rβ clone V3H9 cells (UniProt P17948); assay: cell-based or functional assay; remark: listed apart in the source
[3] = target: chimeric VEGFR1 receptors on HEK293/D9/Flt-IL18Rα/Flt-IL18Rβ clone V3H9 cells (UniProt P17948); assay: cell-based or functional assay; remark: listed apart in the source
[4] = target: VEGF121 (hVEGF121, aa 207-327) (human), P15692; assay: cell-based or functional assay
[5] = target: T2, chimeric VEGFR1 receptors on HEK293/D9/Flt-IL18Rα/Flt-IL18Rβ clone V3H9 cells (UniProt P17948 27-758; Q13478 351-541; P17948 27-758; O95256 378-599, limits assumed); assay: cell-based or functional assay
[6] = target: B6; assay: SPR, Biacore, 25 C; trap captured on anti-VEGFR1 mAb surface, hVEGF165 injected; 1:1 fit
Procedure: (§1) Experimental Procedure. Equilibrium dissociation constants (KD values) for human VEGF₁₆₅ binding to various purified VEGF mini-trap constructs were determined using a real-time surface plasmon resonance biosensor using a Biacore 3000 instrument. All binding studies were performed in 10 mM HEPES, 150 mM NaCl, 3 mM EDTA, and 0.05% v/v Surfactant Tween-20, pH 7.4 (HBS-ET) running buffer at 25° C. The Biacore sensor surface was first derivatized by amine coupling with a monoclonal mouse anti-VEGFR1 antibody to capture VEGF mini-trap constructs. Binding studies were performed on the human VEGF reagent, human VEGF₁₆₅ (human VEGF₁₆₅; SEQ ID NO: 31). Different concentrations of VEGF₁₆₅ reagent, prepared in HBS-ET running buffer (2 nM — 62.5 pM; 2-fold serial dilution for human VEGF₁₆₅), were injected over an anti-VEGFR1-captured VEGF mini-trap construct surface for 1.8 minutes at a flow rate of 90 μL/minute, while the dissociation of VEGF mini-trap constructs bound VEGF₁₆₅ reagent was monitored for 60 minutes in HBS-ET running buffer. Kinetic association (kₐ) and dissociation (kd) rate constants were determined by fitting the real-time sensorgrams to a 1:1 binding model using Scrubber 2.0c curve fitting software. Binding dissociation equilibrium constants (KD) and dissociative half-lives (t½) were calculated from the kinetic rate constants as: […]

[7] = target: B6; assay: SPR, Biacore 3000, 25 C; trap captured on anti-VEGFR1 mAb surface, hVEGF165 injected; 1:1 fit
[8] = target: T1, VEGF110 (hVEGF110, aa 207-318); assay: cell-based or functional assay
[9] = target: B5; assay: cell-based or functional assay
[10] = target: B3; assay: cell-based or functional assay
[11] = target: T2, chimeric VEGFR1 receptors on …; assay: cell-based or functional assay; remark: listed apart in the source
[12] = target: T2, chimeric VEGFR1 receptors on …; assay: cell-based or functional assay; remark: listed apart in the source
[13] = target: B5; assay: cell-based or functional assay
[14] = target: B3; assay: cell-based or functional assay; remark: listed apart in the source
[15] = target: T1, VEGF110 (hVEGF110, aa 207-318); assay: cell-based or functional assay; remark: listed apart in the source
[16] = target: B5; assay: cell-based or functional assay
[17] = target: T1, VEGF110 (hVEGF110, aa 207-318); assay: cell-based or functional assay; remark: listed apart in the source
[18] = target: B5; assay: cell-based or functional assay
[19] = target: B3; assay: cell-based or functional assay; remark: listed apart in the source
[20] = target: T1, VEGF110 (hVEGF110, aa 207-318); assay: cell-based or functional assay; remark: listed apart in the source
[21] = target: B3; assay: SPR, Biacore, 25 C; trap captured on anti-VEGFR1 mAb surface, hVEGF165 injected
Procedure: as §1

[22] = target: B3; assay: SPR, Biacore 3000, 25 C; trap captured on anti-VEGFR1 mAb surface, hVEGF165 injected
[23] = target: B3; assay: SPR, Biacore, 25 C; trap captured on anti-VEGFR1 mAb surface, hVEGF165 injected; 1:1 fit
Procedure: as §1

[24] = target: B3; assay: SPR, Biacore 3000, 25 C; trap captured on anti-VEGFR1 mAb surface, hVEGF165 injected; 1:1 fit

chimeric VEGFR1 receptors on HEK293/D9/Flt-IL18Rα/Flt-IL18Rβ clone V3H9 cells (UniProt P17948), sequence (P17948 other isoform, or with tags, fused parts or gaps mutant limits assumed, chain 1 of 2): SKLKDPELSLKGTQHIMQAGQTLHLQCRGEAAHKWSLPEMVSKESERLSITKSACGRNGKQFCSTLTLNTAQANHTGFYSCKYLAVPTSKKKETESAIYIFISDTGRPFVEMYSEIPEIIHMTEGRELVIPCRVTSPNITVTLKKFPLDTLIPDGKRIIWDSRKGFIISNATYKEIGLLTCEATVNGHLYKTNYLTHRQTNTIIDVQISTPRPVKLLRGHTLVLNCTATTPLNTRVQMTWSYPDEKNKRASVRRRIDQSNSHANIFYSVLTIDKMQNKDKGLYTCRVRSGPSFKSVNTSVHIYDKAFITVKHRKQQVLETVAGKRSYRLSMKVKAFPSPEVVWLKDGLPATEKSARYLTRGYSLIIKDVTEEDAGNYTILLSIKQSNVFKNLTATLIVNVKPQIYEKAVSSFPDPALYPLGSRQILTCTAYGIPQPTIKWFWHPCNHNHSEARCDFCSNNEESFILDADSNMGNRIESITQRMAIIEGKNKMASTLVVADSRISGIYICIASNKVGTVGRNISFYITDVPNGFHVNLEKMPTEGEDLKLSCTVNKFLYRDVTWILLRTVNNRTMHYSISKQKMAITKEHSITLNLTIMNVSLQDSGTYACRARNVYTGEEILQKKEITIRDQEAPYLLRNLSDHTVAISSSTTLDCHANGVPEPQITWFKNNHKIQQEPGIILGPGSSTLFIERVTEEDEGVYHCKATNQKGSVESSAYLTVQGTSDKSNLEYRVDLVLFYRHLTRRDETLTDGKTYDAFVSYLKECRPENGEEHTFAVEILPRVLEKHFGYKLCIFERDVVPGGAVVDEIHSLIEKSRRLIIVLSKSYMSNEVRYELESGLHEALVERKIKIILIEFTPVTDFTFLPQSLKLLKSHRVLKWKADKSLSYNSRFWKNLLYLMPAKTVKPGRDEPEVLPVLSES
chimeric VEGFR1 receptors on HEK293/D9/Flt-IL18Rα/Flt-IL18Rβ clone V3H9 cells (UniProt P17948), sequence (P17948 other isoform, or with tags, fused parts or gaps mutant limits assumed, chain 2 of 2): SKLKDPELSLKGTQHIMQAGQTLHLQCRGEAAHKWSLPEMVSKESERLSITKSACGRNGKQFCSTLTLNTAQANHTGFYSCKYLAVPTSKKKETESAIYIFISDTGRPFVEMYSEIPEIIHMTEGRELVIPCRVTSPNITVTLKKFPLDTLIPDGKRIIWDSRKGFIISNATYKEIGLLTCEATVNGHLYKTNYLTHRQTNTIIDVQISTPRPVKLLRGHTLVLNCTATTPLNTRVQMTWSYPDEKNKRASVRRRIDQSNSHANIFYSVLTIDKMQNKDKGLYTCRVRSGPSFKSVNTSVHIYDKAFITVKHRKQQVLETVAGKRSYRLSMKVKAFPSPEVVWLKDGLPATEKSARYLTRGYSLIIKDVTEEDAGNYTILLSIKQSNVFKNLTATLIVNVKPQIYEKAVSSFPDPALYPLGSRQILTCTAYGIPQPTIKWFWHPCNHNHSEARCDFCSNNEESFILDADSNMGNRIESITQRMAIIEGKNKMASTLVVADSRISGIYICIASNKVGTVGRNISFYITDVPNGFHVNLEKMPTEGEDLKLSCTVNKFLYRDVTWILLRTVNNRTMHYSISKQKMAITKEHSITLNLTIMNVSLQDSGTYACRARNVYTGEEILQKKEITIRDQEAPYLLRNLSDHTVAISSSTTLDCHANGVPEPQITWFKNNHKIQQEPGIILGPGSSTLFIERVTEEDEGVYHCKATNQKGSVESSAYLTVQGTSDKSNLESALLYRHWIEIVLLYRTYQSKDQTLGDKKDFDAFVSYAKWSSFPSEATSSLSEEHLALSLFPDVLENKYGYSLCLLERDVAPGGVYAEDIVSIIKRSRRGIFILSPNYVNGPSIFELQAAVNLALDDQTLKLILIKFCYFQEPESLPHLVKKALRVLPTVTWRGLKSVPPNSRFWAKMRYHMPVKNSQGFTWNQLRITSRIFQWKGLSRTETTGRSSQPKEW
T2 sequence (P17948 other isoform, or with tags, fused parts or gaps mutant limits assumed, chain 1 of 2): as the sequence (P17948 other isoform, or with tags, fused parts or gaps mutant limits assumed, chain 1 of 2) above
T2 sequence (P17948 other isoform, or with tags, fused parts or gaps mutant limits assumed, chain 2 of 2): as the sequence (P17948 other isoform, or with tags, fused parts or gaps mutant limits assumed, chain 2 of 2) above

Molecule: VEGF110 (hVEGF110, aa 207-318) (from UniProt P15692 207-318) (ligand)
- EC50 (M), activation of HEK293/D9/Flt-IL18Ra/Flt-IL18Rb (luciferase) [1]: 1.14e-11 M
- EC50 (M), activation of HEK293/D9/Flt-IL18Ra/Flt-IL18Rb (luciferase) [2]: 1.51e-11 M
- EC50 (M), activation of HEK293/D9/Flt-IL18Ra/Flt-IL18Rb (luciferase) [3]: 2.4e-11 M

Molecule: B1
- IC50 (M), inhibition of VEGFR1 signaling (luciferase), 20 pM VEGF121 [4]: 9.27e-12 M

Molecule: B2
- IC50 (M), inhibition of VEGFR1 signaling (luciferase), 20 pM VEGF121 [4]: 8.79e-12 M

Molecule: B3
- EC50 (M), activation of HEK293/D9/Flt-IL18Ra/Flt-IL18Rb (luciferase) [5]: 4.3e-11 M
- Kd [6]: ≤ 0.00127 nM
- Kd [7]: ≤ 0.00179 nM

Molecule: B4
- IC50 (read off the curve); VEGFR1 reporter luciferase with 20 pM VEGF110 constant [8]: ~1e-10 M
- IC50 (read off the curve); VEGFR1 reporter luciferase with 40 pM VEGF121 constant [9]: ~1e-10 M
- IC50 (read off the curve); VEGFR1 reporter luciferase with 40 pM VEGF165 constant [10]: ~2e-10 M

Molecule: B5
- EC50 (M), activation of HEK293/D9/Flt-IL18Ra/Flt-IL18Rb (luciferase) [11]: 2.12e-11 M
- EC50 (M), activation of HEK293/D9/Flt-IL18Ra/Flt-IL18Rb (luciferase) [12]: 2.56e-11 M
- EC50 (M), activation of HEK293/D9/Flt-IL18Ra/Flt-IL18Rb (luciferase) [5]: 4.4e-11 M

Molecule: B6
- IC50 (M), inhibition of VEGFR1 signaling (luciferase), 20 pM VEGF121 [13]: 8.94e-12 M
- IC50 (M), inhibition of VEGFR1 signaling (luciferase), 20 pM VEGF165 [14]: 1.18e-11 M
- IC50 (M), inhibition of VEGFR1 signaling (luciferase), 20 pM VEGF110 [15]: 1.53e-11 M
- IC50 (M), inhibition of VEGFR1 signaling (luciferase), 20 pM VEGF121 [16]: 9.64e-12 M
- IC50 (M), inhibition of VEGFR1 signaling (luciferase), 20 pM VEGF110 [17]: 1.53e-11 M
- IC50 (M), inhibition of VEGFR1 signaling (luciferase), 20 pM VEGF121 [18]: 1.26e-11 M
- IC50 (M), inhibition of VEGFR1 signaling (luciferase), 20 pM VEGF165 [19]: 2.09e-11 M
- IC50 (M), inhibition of VEGFR1 signaling (luciferase), 20 pM VEGF110 [20]: 1.15e-11 M
- 2nM hVEGF165 Bound [21]: 29 RU
- 100 nM hVEGF165 Bound [22]: 21 RU
- t1/2 (dissociative half-life) [23]: ≥ 19.2 h
- t½ (dissociative half-life) [24]: ≥ 19.2 h
